From patent US20230257746

What follows are substances tested against T1, ZNF410 (Homo sapiens) (UniProt Q86VK4). Conditions: CUT&RUN with anti-HA in HUDEP-2 cells.
T1 sequence: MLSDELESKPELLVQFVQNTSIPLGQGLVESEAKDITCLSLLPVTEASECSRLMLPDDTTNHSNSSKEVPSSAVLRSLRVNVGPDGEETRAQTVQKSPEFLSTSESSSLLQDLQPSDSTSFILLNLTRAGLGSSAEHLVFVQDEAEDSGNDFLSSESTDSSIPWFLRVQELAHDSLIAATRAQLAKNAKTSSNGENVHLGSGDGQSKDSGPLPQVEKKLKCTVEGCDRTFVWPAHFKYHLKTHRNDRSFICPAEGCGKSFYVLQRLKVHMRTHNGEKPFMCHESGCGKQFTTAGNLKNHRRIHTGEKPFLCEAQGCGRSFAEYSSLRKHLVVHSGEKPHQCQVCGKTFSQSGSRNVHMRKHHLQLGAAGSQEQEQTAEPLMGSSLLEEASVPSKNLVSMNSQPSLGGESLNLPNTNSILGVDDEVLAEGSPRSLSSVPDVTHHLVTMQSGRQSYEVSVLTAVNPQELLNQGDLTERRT

Row | Substance | binding signal (fold enrichment over IgG)
1 | CHD4 -6 kb enhancer (11 ZNF410 motifs) | 78
2 | CHD4 promoter (16 ZNF410 motifs) | 48
3 | NBPF19 intron site | 11
